Test results reported in publication PMC4121237, “Engineering Neprilysin Activity and Specificity to Create a Novel Therapeutic for Alzheimer’s Disease” (PLoS ONE, 2014).
Values joined by “and” are separate entries in the source; they are usually repeats but may differ in a detail not shown here. Identical values can stand only once.

Legend:
Assay type in all cases: biochemical
Nociceptin = experiment: Steady-state kinetics of peptide cleavage, fluorescence polarisation; settings: substrate Nociceptin
Description: (§1) For detailed kinetic characterisation of peptide cleavage by NEP, a similar assay to that above was used with modifications based on a published method. Peptides were synthesised by Bachem using 9-fluorenylmethyloxycarbonyl solid-phase peptide synthesis and were labelled with a N-terminal 5(6)FAM via a ε-aminocaproic acid linker and a C-terminal biotin via a lysine linker (Table S1). Purified peptides were supplied as trifluoroacetate salts with a purity ≥95%. The assay was performed in a 96-well microtitre plate and contained 50 mM HEPES (pH 7.4), 100 mM NaCl, 0.05% (w/v) BSA (Buffer A), 1–200 µM peptide substrate and 1–500 nM NEP protein. Reactions were incubated at 37°C before being stopped at various time points between 2 and 360 min by transferring 5 µL aliquots to 245 µL Buffer A containing 2 mM 1,10-phenanethroline (Sigma) and 2 µM avidin (Invitrogen). For peptide substrates containing disulphide bonds, 1 mM tris(2-carboxyethyl)phosphine (Thermo Scientific) was added to the stop solution. The fluorescence polarisation of the resulting solution was measured on a Victor plate reader and the amount of substrate cleaved was determined with reference to substrate-only controls with and without avidin. Initial rates were obtained by linear regression of the linear regions of time courses. Enzyme velocity was plotted as a function of substrate concentration and the Michaelis-Menten equation was used to fit the data, giving the parameters kcat and KM.

γ-endorphin = experiment: as above; settings: substrate γ-endorphin
Description: as §1

ANP = experiment: as above; settings: substrate ANP
Description: as §1

Somatostatin 28 = experiment: as above; settings: substrate Somatostatin 28
Description: as §1

Arg-vasopressin = experiment: as above; settings: substrate Arg-vasopressin
Description: as §1

GLP-1 = experiment: as above; settings: substrate GLP-1
Description: as §1

α-endorphin = experiment: as above; settings: substrate α-endorphin
Description: as §1

Neurotensin = experiment: as above
Description: as §1

Neurokinin B = experiment: as above; settings: substrate Neurokinin B
Description: as §1

Somatostatin 14 = experiment: as above; settings: substrate Somatostatin 14
Description: as §1

Glucagon = experiment: as above; settings: substrate Glucagon
Description: as §1

Aβ1–40 = experiment: as above; settings: for increase in kcat/KM (catalytic efficiency) on Aβ1–40 over wild-type NEP: relative to wild-type NEP
Description: as §1

GRP = experiment: as above; settings: substrate GRP
Description: as §1

Substance P = experiment: as above; settings: substrate Substance P
Description: as §1

Angiotensin = experiment: as above
Description: as §1

Neurokinin A = experiment: as above; settings: substrate Neurokinin A
Description: as §1

Bradykinin = experiment: as above
Description: as §1

[1] = test system: panel of off-target peptides; experiment: Steady-state kinetics across the panel of off-target peptides
Description: For detailed kinetic characterisation of peptide cleavage by NEP, a similar assay to that above was used with modifications based on a published method. Peptides were synthesised by Bachem using 9-fluorenylmethyloxycarbonyl solid-phase peptide synthesis and were labelled with a N-terminal 5(6)FAM via a ε-aminocaproic acid linker and a C-terminal biotin via a lysine linker (Table S1). Purified peptides were supplied as trifluoroacetate salts with a purity ≥95%. The assay was performed in a 96-well microtitre plate and contained 50 mM HEPES (pH 7.4), 100 mM NaCl, 0.05% (w/v) BSA (Buffer A), 1–200 µM peptide substrate and 1–500 nM NEP protein. […] The fluorescence polarisation of the resulting solution was measured on a Victor plate reader and the amount of substrate cleaved was determined with reference to substrate-only controls with and without avidin. […]
Kinetic parameters for cleavage of endothelin-1 by NEP were determined using a stopped assay in which the amount of substrate cleaved was measured using reversed-phase HPLC (RP-HPLC). […] RP-HPLC spectra were recorded using an Agilent 1260 Infinity system. […] Signal intensity for intact endothelin-1 was monitored at 210 nm and relative peak area was determined by manual integration of the baseline. […]
Kinetic parameters for cleavage of a panel of peptides by wild-type NEP and NEPv were determined (Figure 3 and Table 2). […]

[2] = ratio of wild-type NEP kcat/KM to that of the mutant
[3] = substrate Neurotensin, 37°C, pH 7.4
[4] = substrate Aβ 1–40, 37°C, pH 7.4
[5] = substrate Angiotensin, 37°C, pH 7.4
[6] = substrate Bradykinin, 37°C, pH 7.4

B1: NEPv: lead variant at round 2, human NEP ectodomain with the two mutations G399V and G714K (protein, UniProt P08473 52-750, looked up, variant G399V G714K)
extracellular domain: YDDGICKSSDCIKSAARLIQNMDATTEPCTDFFKYACGGWLKRNVIPETSSRYGNFDILRDELEVVLKDVLQEPKTEDIVAVQKAKALYRSCINESAIDSRGGEPLLKLLPDIYGWPVATENWEQKYGASWTAEKAIAQLNSKYGKKVLINLFVGTDDKNSVNHVIHIDQPRLGLPSRDYYECTGIYKEACTAYVDFMISVARLIRQEERLPIDENQLALEMNKVMELEKEIANATAKPEDRNDPMLLYNKMTLAQIQNNFSLEINGKPFSWLNFTNEIMSTVNISITNEEDVVVYAPEYLTKLKPILTKYSARDLQNLMSWRFIMDLVSSLSRTYKESRNAFRKALYVTTSETATWRRCANYVNGNMENAVGRLYVEAAFAGESKHVVEDLIAQIREVFIQTLDDLTWMDAETKKRAEEKALAIKERIGYPDDIVSNDNKLNNEYLELNYKEDEYFENIIQNLKFSQSKQLKKLREKVDKDEWISGAAVVNAFYSSGRNQIVFPAGILQPPFFSAQQSNSLNYGGIGMVIGHEITHGFDDNGRNFNKDGDLVDWWTQQSASNFKEQSQCMVYQYGNFSWDLAGGQHLNGINTLGENIADNGGLGQAYRAYQNYIKKNGEEKLLPGLDLNHKQLFFLNFAQVWCGTYRPEYAVNSIKTDVHSPKNFRIIGTLQNSAEFSEAFHCRKNSYMNPEKKCRVW
modifications: extracellular domain
For B1, the Km (Nociceptin; 37°C, pH 7.4) was 63 ± 7 µM, the kcat (Nociceptin; 37°C, pH 7.4) was 14 ± 0.9 s⁻¹ and the “Fold change in kcat/KM” value (Nociceptin; [2]) was 2.6. For the same molecule, the Km (γ-endorphin; 37°C, pH 7.4) was 4.4 ± 0.6 µM, the kcat (γ-endorphin; 37°C, pH 7.4) was 0.16 ± 0.006 s⁻¹ and the “Fold change in kcat/KM” value (γ-endorphin; [2]) was 10. For the same molecule, the Km (ANP; 37°C, pH 7.4) was 33 ± 6 µM, the kcat (ANP; 37°C, pH 7.4) was 0.56 ± 0.05 s⁻¹ and the “Fold change in kcat/KM” value (ANP; [2]) was 53. The Km (Somatostatin 28; 37°C, pH 7.4) was 47 ± 20 µM, the kcat (Somatostatin 28; 37°C, pH 7.4) was 0.086 ± 0.02 s⁻¹ and the “Fold change in kcat/KM” value (Somatostatin 28; [2]) was 87. The Km (Arg-vasopressin; 37°C, pH 7.4) was 22 ± 3 µM, the kcat (Arg-vasopressin; 37°C, pH 7.4) was 0.017 ± 0.001 s⁻¹ and the “Fold change in kcat/KM” value (Arg-vasopressin; [2]) was 510. The Km (GLP-1; 37°C, pH 7.4) was 23 ± 4 µM, the kcat (GLP-1; 37°C, pH 7.4) was 0.89 ± 0.07 s⁻¹ and the “Fold change in kcat/KM” value (GLP-1; [2]) was 3.6. The Km (α-endorphin; 37°C, pH 7.4) was 6.5 ± 1 µM, the kcat (α-endorphin; 37°C, pH 7.4) was 0.089 ± 0.003 s⁻¹ and the “Fold change in kcat/KM” value (α-endorphin; [2]) was 26. The Km (Neurotensin; [3]) was 16 ± 3 µM, the kcat (Neurotensin; [3]) was 0.039 ± 0.002 s⁻¹ and the “Fold change in kcat/KM” value (Neurotensin; substrate Neurotensin, ratio of wild-type NEP kcat/KM to that of the mutant) was 320. For the same molecule, the “reduction in kcat relative to wild-type NEP” value (Neurotensin; substrate neurotensin) was 340 fold, the Km (Neurokinin B; 37°C, pH 7.4) was 22 ± 3 µM and the kcat (Neurokinin B; 37°C, pH 7.4) was 0.42 ± 0.03 s⁻¹. The “Fold change in kcat/KM” value (Neurokinin B; [2]) was 48, the Km (Somatostatin 14; 37°C, pH 7.4) was 32 ± 3 µM and the kcat (Somatostatin 14; 37°C, pH 7.4) was 9.1 ± 0.4 s⁻¹. The “Fold change in kcat/KM” value (Somatostatin 14; [2]) was 15, the Km (Glucagon; 37°C, pH 7.4) was 30 ± 6 µM and the kcat (Glucagon; 37°C, pH 7.4) was 1.2 ± 0.1 s⁻¹. For the same molecule, the “Fold change in kcat/KM” value (Glucagon; [2]) was 4.2, the “increase in kcat relative to wild-type NEP” value (Aβ1–40; substrate Aβ1–40) was ~2 fold and the Km (Aβ1–40; [4]) was 14 ± 1 µM. The kcat (Aβ1–40; [4]) was 2.1 ± 0.1 s⁻¹, the “Fold change in kcat/KM” value (Aβ1–40; substrate Aβ 1–40, ratio of wild-type NEP kcat/KM to that of the mutant) was 0.055 and the “increase in kcat/KM (catalytic efficiency) on Aβ1–40 over wild-type NEP” value (Aβ1–40; substrate Aβ1–40) was 18.5 fold and 20 fold. The “increase in kcat/KM (catalytic efficiency) on Aβ1–40 over wild-type NEP” value (Aβ1–40; substrate Aβ1–40, listed as Neprilysin variant G399V/G714K) was “approximately 20 fold”, the “reduction in kcat relative to wild-type NEP” value (GRP) was 67 fold and the Km (GRP; 37°C, pH 7.4) was 120 ± 20 µM. The kcat (GRP; 37°C, pH 7.4) was 0.39 ± 0.05 s⁻¹, the “Fold change in kcat/KM” value (GRP; [2]) was 52 and the Km (Substance P; 37°C, pH 7.4) was 92 ± 10 µM. The kcat (Substance P; 37°C, pH 7.4) was 12 ± 0.9 s⁻¹, the “Fold change in kcat/KM” value (Substance P; [2]) was 8.7 and the Km (Angiotensin; [5]) was 13 ± 2 µM. The kcat (Angiotensin; [5]) was 0.14 ± 0.007 s⁻¹, the “Fold change in kcat/KM” value (Angiotensin; substrate Angiotensin, ratio of wild-type NEP kcat/KM to that of the mutant) was 87 and the “reduction in kcat relative to wild-type NEP” value (Angiotensin; substrate angiotensin) was 60 fold. For the same molecule, the Km (Neurokinin A; 37°C, pH 7.4) was 34 ± 7 µM, the kcat (Neurokinin A; 37°C, pH 7.4) was 1.1 ± 0.1 s⁻¹ and the “Fold change in kcat/KM” value (Neurokinin A; [2]) was 52. For the same molecule, the “specificity switch in favor of cleavage of Aβ” value (Bradykinin; Aβ1–40 versus bradykinin) was 6.4×10^4, the Km (Bradykinin; [6]) was 37 ± 10 µM and the kcat (Bradykinin; [6]) was 0.0055 ± 0.001 s⁻¹. The “reduction in activity on other peptides” value ([1]; other (off-target) peptides, relative to wild-type) was ≤ 3,200 fold and the “average specificity switch (ratio of the fold change in kcat/KM on Aβ1–40 to that on other peptides)” value ([1]; panel of 16 peptides) was 5,300 fold.
